The values below come from patent publication US20160237119A1 (UNIVERSITY OF TOKYO, published 2016).

Bridges are numbered along the chain shown (N, C = ends). Where no end group is shown, it is not given here. fluorescein = fluorescein fluorescent label attached to the peptide

The target in experiment [1] is T1, c-Met-Fc chimera protein (UniProt P08581 25-932, limits assumed).
T1 construct: Captured on the SPR chip by an anti-IgG antibody; not shown: Fc part
In words: SPR (Biacore), c-Met-Fc captured by anti-IgG on CM5, single-cycle kinetics. As for the experimental part: (§1) As a sensor chip, Sensor Chip CM5 was used and an anti-IgG antibody was immobilized on a measurement lane and a control lane by using Human Antibody Capture Kit.
(§2) On the measurement lane was immobilized c-Met-Fc, while on the control lane was immobilized Fc protein.
(§3) As a running buffer, HBS-EP+ buffer containing 0.1% DMSO was used and a dissociation constant of the thioether macrocyclic peptide was calculated at 5 different concentrations by using the single-kinetics method.
A general note: Surface plasmon resonance follows binding to a sensor surface in real time, without labels.

Experiment [2] concerns the target T1, c-Met-Fc chimera protein. The description is as above. As for the experimental part: as §1, §2, §3
This is another data set of the same source.

Experiment [3] has as its target T1, c-Met-Fc chimera protein. In words: SPR presumed (Biacore as in 9-1; method not given), c-Met-Fc on chip.
Experiment [4] concerns the target T1, c-Met-Fc chimera protein. The description is as above. The source holds these as a separate data set.
In experiment [5] the target is T2, human c-Met (human, UniProt P08581 25-1390).
T2 construct: whole, on cells; Endogenous receptor on human cell lines; alpha and beta sub-units come from one precursor; also called c-Met protein; HGF receptor
T2 sequence (P08581 25-1390): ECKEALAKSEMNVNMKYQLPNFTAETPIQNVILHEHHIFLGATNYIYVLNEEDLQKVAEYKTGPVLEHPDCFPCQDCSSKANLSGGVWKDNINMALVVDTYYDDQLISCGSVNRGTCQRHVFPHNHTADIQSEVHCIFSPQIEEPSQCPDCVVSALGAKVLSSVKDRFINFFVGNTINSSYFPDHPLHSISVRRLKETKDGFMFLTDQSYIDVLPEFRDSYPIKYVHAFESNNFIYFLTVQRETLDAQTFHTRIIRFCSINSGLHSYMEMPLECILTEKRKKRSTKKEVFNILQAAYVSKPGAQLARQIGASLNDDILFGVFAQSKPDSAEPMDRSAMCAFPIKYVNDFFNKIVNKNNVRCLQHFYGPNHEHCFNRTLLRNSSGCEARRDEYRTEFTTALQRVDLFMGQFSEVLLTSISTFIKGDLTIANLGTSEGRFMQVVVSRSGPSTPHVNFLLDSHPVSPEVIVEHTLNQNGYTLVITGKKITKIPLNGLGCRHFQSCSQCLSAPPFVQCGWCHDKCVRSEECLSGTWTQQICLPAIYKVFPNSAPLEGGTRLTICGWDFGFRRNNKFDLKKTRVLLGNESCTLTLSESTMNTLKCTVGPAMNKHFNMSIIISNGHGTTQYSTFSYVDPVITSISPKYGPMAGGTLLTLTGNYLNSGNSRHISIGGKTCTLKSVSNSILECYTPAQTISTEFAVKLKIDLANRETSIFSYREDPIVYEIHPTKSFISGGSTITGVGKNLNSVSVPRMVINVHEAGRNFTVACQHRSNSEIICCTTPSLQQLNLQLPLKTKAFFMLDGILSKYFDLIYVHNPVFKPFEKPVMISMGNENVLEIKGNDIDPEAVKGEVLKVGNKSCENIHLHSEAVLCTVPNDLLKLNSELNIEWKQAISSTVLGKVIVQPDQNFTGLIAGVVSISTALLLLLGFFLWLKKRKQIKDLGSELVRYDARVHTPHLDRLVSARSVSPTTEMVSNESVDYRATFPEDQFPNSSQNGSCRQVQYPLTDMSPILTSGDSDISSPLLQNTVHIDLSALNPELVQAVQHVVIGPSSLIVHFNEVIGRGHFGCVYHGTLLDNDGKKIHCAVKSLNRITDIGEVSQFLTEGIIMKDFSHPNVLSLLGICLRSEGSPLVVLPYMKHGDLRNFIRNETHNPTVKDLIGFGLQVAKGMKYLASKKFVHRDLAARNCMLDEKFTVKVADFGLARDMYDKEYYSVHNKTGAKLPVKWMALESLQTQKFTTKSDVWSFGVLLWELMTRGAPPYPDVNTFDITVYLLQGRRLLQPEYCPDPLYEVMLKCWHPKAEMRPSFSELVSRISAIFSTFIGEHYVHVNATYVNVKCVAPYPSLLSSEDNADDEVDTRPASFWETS
Kind of experiment: confocal fluorescence microscopy on human c-Met expressing SNU-638 cells. As for the experimental part: To human c-Met expressing cells (human SNU-638 cells) or human c-Met non-expressing cells (human SNU-216 cells) cultured on a glass-bottom dish were added a RPMI1640 medium containing 1 mg/L of Hoechst 33342, a nuclear staining reagent, an anti-human c-Met antibody, and 1 uM of L5-2-fluorescein, D4-3-fluorescein, D5-4-fluorescein, D4-3NMe-fluorescein, or D4-3scr-fluorescein and the resulting mixture was incubated in 5% CO₂ at 37° C. for 5 minutes. Then, a RPMI1640 medium containing an HRP-anti-rat secondary antibody and 1 μM of L5-2-fluorescein, D4-3-fluorescein, D5-4-fluorescein, D4-3NMe-fluorescein, or D4-3scr-fluorescein was added and the resulting mixture was incubated in 5% CO₂ at 37° C. for 5 minutes.
The cells were washed three times with a D-MEM medium and were microscopically observed in a new RPMI1640 medium. The localization of the peptide was observed using a confocal fluorescence microscope for the microscopic observation.

T1 sequence (P08581 25-932 limits assumed, change not shown): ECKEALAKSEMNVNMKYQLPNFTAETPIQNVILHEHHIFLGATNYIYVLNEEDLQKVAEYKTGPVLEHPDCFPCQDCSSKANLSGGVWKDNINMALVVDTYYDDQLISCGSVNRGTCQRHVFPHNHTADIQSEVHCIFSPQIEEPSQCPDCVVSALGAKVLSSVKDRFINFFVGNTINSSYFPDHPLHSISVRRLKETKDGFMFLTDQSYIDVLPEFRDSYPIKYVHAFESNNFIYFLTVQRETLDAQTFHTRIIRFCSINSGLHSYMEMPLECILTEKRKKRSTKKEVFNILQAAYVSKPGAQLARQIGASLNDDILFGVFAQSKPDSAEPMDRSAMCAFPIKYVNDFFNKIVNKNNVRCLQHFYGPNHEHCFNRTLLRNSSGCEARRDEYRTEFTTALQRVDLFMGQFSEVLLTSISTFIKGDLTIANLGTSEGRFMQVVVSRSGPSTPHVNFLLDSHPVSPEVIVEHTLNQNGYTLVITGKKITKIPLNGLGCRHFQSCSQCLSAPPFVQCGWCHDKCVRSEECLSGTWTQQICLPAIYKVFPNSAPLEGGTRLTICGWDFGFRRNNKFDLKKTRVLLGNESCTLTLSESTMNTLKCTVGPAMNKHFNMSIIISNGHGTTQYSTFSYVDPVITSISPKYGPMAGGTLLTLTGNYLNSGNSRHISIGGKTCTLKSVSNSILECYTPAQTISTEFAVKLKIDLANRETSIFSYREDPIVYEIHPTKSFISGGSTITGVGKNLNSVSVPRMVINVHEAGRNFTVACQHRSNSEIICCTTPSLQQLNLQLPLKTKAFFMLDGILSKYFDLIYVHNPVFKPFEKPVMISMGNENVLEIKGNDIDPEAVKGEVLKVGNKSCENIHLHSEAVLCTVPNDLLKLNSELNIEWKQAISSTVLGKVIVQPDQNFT

In the case of {CH2CO}-YRQFNRRTHEVWNLDCG (thioether N-16; not fully specified, also called D4-3 peptide; D4-3 Monomer) [D4-3], the Kd (usually the free concentration of one partner at which half of the binding sites on the other are occupied at equilibrium, for simple one-to-one binding) in experiment [1] worked out at 3.4 nM; in experiment [2] it was 3.4 nM; in experiment [3], 8.5 nM; in experiment [4], 8.5 nM. Also, the koff (usually a measure of how fast the partners let go of each other) stood at 0.008 s⁻¹ in experiment [1], 0.008 s⁻¹ in experiment [2], 0.011 s⁻¹ in experiment [3] and 0.011 s⁻¹ in experiment [4]. The kon (as a rule, the second-order rate constant of association) was 2.4e+06 M⁻¹ s⁻¹ in experiment [1], 2.4e+06 M⁻¹ s⁻¹ in experiment [2], 1.3e+06 M⁻¹ s⁻¹ in experiment [3] and 1.3e+06 M⁻¹ s⁻¹ in experiment [4].

For {CH2CO}-YERVNHLFRNQTWDRCGK(fluorescein) (thioether N-16, Negative control) [D4-3scr-fluorescein], the binding result in experiment [5] is reported as “no binding (tested: 1 uM)”.
